Measured values as given in publication PMC12923946 (Cell Reports Medicine, 2026).

B1: RM 5-1 (antibody, V domains shown)
VH: QGQLVQSGPEVKKPGATVKVSCRASAYPFGNYGITWVRQVPGQGLEWVGWISAYTGHTKFPQNFQGRVTLTADTSTSTGYMELRSLTSDDTAVYYCARGPCCSSPRPYDIWGQGTMVTVSS
VL: DIQMTQSPSTLSASVGDRVTITCRASQSIDDWLAWYQHSPGKAPKLLIYRASRLESGVPSRFSGSGSGTEFTLTISSLQPDDFASYYCQQCYTYSQTFGQGTRVEIK
B2: RM 5-1 Fab (Fab, V domains shown)
VH: B1 VH
VL: B1 VL

Experiments:
RSV-F A2 (DS-Cav-1) = RSV-F A2 (DS-Cav-1) (Human respiratory syncytial virus A, …, UniProt P03420, stabilised); assay: ELISA
hMPV-F A1(NL/1/00) = hMPV-F A1(NL/1/00) (human metapneumovirus A1, strain NL/1/00, UniProt Q91F55, stabilised); assay: ELISA
[1] = target: RSV prefusion F trimer (competition assays) (human respiratory syncytial virus A, …, UniProt P03420, stabilised); assay: ELISA
hMPV F-DS-CavEs2-IPDS = target: T1, hMPV F-DS-CavEs2-IPDS (human metapneumovirus (strain not …, N-linked glycan at Asn172 (partially modelled))); assay: cryo-EM structure
T1 chain: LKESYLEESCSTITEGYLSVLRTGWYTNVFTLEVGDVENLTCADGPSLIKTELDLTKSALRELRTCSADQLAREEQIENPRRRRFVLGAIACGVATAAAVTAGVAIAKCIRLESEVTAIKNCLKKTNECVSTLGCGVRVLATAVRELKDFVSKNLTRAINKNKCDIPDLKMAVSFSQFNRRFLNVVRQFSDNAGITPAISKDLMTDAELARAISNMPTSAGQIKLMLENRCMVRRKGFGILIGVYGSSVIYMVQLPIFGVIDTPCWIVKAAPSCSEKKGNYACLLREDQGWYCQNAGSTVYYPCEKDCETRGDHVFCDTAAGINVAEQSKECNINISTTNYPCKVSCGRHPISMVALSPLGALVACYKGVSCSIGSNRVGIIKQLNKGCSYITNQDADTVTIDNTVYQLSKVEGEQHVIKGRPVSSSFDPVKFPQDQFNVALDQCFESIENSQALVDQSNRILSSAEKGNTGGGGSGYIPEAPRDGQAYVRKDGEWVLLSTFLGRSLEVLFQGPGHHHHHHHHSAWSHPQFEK

| Binder | binding result (RSV-F A2 (DS-Cav-1)) | binding result (hMPV-F A1(NL/1/00)) | binding result [1] | stoichiometry N (hMPV F-DS-CavEs2-IPDS) |
| --- | --- | --- | --- | --- |
| B1 | binds | binds | binds |  |
| B2 |  |  |  | 3 Fabs per trimer |
